# Data from the nanobody polyreactivity screen of Harvey et al. (2022).
# Experiment: yeast display, Sf9 membrane polyspecificity reagent, FACS + sequencing; frameworks hold sequencing errors
# How it was run: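 Synthetic nanobody libraries on Saccharomyces cerevisiae BJ5465 were galactose-induced for 36–48 hours, stained 1 hour at 4 °C with 10% biotinylated, detergent-solubilized Sf9 membrane reagent and enriched on streptavidin microbeads. FACS then separated cells into low and high (top ~1%) gates by anti-HA (expression) and streptavidin (reagent binding) fluorescence. Genes were colony-PCR amplified, MiSeq 2 × 250 sequenced and CDR-length filtered. A clone's polyreactivity label is that of its gate of origin.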
row,Sequence,polyreactivity (PSR sort gate)
1,QVQHVESGGGLLQAGGSLRLTCTASRSIFPYYAMGWYRQATGKERELVAAISSSGARTYYADSVKGRFTISRDNAKNTVYLQMNSLKPEDTGFYYCNSDTIRYRTYGRYAWYNYWGQGTQVTVSS,high polyreactivity
2,QVQHVESGGGLVHAGGSLRLSCAASGSTFRPYPRGWSRQAPGKERELVAAIRKIGGRTYYADSVKGRFTISRDNAKNTVYLQMNSLKPEDTAVYYCNKRIGGGVHAYNYWGQGTQVTVSS,low polyreactivity
3,QVQHVESGGGLVQAGCSLRLSCAASGLIFGLYAMGWFRPAPGKERELVAAISYRTDSTYADSVKGRFTISRDNAKNTVYLQMNSLKPEDNAVYYCAADLRVSVRYYYWGHGTQVTVSS,low polyreactivity
4,QVQHVESGGGLVQAGGRLRLSCAASGIIFQYYAMGSYRQAPGKERESVAGITYPGGSTYYADSVKGRFTISRDNAKNTVYLPKNSLQPEDTAVYFCNAVGVSARYWRQLPSYRYDYWGQGTQVTVSS,low polyreactivity
5,QVQHVESGGGLVQAGGSHRLSCAASGRIFPWNTMGRYRQAPGKERELVAGITSGGSTNYADSVKGRFTISRDNAKNTVYLQMKSLKPEDTAVYYCNRDSVGYDYWGQGTQVTVSS,low polyreactivity
6,QVQHVESGGGLVQAGGSHRLSSAASGSTFRGYVMGWYRQAPGKERELVAVITTSDGDTYYADSVKGRFTNSRDNAKNTVYLQMNSLKPEDTAVYYCNADLYSYYGDNYWGQGTQVTVSS,low polyreactivity
7,QVQHVESGGGLVQAGGSLLLSSAASGRTFLVNAMGWNRQAPGKEREFVAAITSRSGRTNYADSVKGRFTISRDTAKNNVYLQMNSLKPEDTAVYYCNAEGYTVKYWYSRYDYWGQGTQVTVSS,high polyreactivity
8,QVQHVESGGGLVQAGGSLRIRCAASGSIFDLNAMGWYRPAPGKEMELVAASSSGGGTYYADSVKGRFTISRDNAKKTVYLLMISLKPEDTALSDCNRVTRWTYNYWGQGSQVTVSS,high polyreactivity
9,QVQHVESGGGLVQAGGSLRLICAASGSTFGYNAMGWYRHAPGKERELVARITSSGGATYYADSVKWRFTISRDNAKHTVYLLKNSLKPEDTAVYYCAAGYPYRAVYRYYYWGQGTQVTVSS,high polyreactivity
10,QVQHVESGGGLVQAGGSLRLSCAASARIFYWYVMGWSRQAPGKERELVASISRSGGSTYYADSVKGRFTISRDNAKNTVYVQMNSLKPEDTAVYYCNAGSVYTVSLPGHPYDYWGQGTQVTVSS,low polyreactivity
11,QVQHVESGGGLVQAGGSLRLSCAASGFIFDNYAMGWYRQSPGKERELVAAISRSGGSTYYADSVKGRFTISRDNAKTTVYLQMNSLKPEDTAVYYCATSGPRGWSLHDYWGQGTQVTVSS,high polyreactivity
12,QVQHVESGGGLVQAGGSLRLSCAASGFIFPNNAMGWYLQAPGKERELVARISYGGGDTHYADSVKGRFTISRDNAKNTVSLQMNSLKPEDTAVYYCAVKVGQDDYWGQGTQVTVSS,low polyreactivity
13,QVQHVESGGGLVQAGGSLRLSCAASGFIFRRYVMGWYRQAPGKERELVAAISYGGGSTYYADSVKGRFTISRDNAKNTVYLQMNCLKPEDTAVYYCNAVSYNLAAYDYWGQGTQVTVSS,high polyreactivity
14,QVQHVESGGGLVQAGGSLRLSCAASGFIFRYYAMGWYRQAPGKERELVAAITWNGGSTYYADSVKGRFTISRDNAKNTVYLQLNSLKPEDTAVYYCADVPYTPSPYTYGYWGQGTQVSVSS,high polyreactivity
15,QVQHVESGGGLVQAGGSLRLSCAASGFIFSNNAMGRYRQAPGKERELVAAITSSGGRTYYADSVKGRFTISRDNAKNTVYLQMNSLKPEDTAVYYCAAVWRTSVWTKYGYWGQGTQVTVSS,high polyreactivity
16,QVQHVESGGGLVQAGGSLRLSCAASGFIFVRNTMGWYRQAPGKERELVATITRRGGSTSYADSVKGRFTISRDNAKNTVYLQMNSLKPEDTAVYFCNARSVYGSKQEEYWGQGTQVTVSS,high polyreactivity
17,QVQHVESGGGLVQAGGSLRLSCAASGFIIQGNAMGWYRQAPGKERELVAAISSSVSTYYADSVKGRFTISRDNAKNTVYLQMNSLKPEDTAVYYCNAGFPLSLWLGDYWGQGTQVTVSS,low polyreactivity
18,QVQHVESGGGLVQAGGSLRLSCAASGFTFGSYAMGWYRQAPGKERELVARISSDGSTNYADSVKGRFTISRDNPKNTVYLQMNSLKPEDTAVYYCAADRVVEYADYYYWGQGTQVTVSS,low polyreactivity
19,QVQHVESGGGLVQAGGSLRLSCAASGFTFNLYAMGWYRQAPGKERELVAAINWSGGTYYADSVKGRFTISRDNAKNTVYLQMNSLKPEYTAVYYCAADFPYTPWSYHHHVWSPDFDYWGQGTQVTVSS,low polyreactivity
20,QVQHVESGGGLVQAGGSLRLSCAASGFTFQSYPMGWYRQAPGKERELVAAITRRGTRTYYADSVKGRFTISRDNAKNTVYLQLNSLKPEDTAVYYCAARSPKLEFDYWGQGTQVTVSS,high polyreactivity
21,QVQHVESGGGLVQAGGSLRLSCAASGFTFWRYAMGWYRQEPGKERELVAGISSGGSTNYADSVKGRFTISRDNAKNTVYLQMNSLKPEDTAVYYCAADNSVGSYDYWGQGSQVTVSS,low polyreactivity

row,Sequence,polyreactivity (PSR sort gate)
1,QVQHVESGGGLVQAGGSLRLSCAASGFTSIMYAMGWYRQAPGKERDLVASISISDGSTYYADSVKGRFTISRDNAKNTVYLQMNILKPEDTAVYYCAADVYVWYTYSYDYWGQGTKVTVSS,low polyreactivity
2,QVQHVESGGGLVQAGGSLRLSCAASGIIFFKNAMGWYRQAPGKERELVAAISSTDTRTYYADSVKGRFTISRDNAKNTVYLQMNSLKPEDTAVYYCAASRRGGGLDYWGQGTQVTVSS,high polyreactivity
3,QVQHVESGGGLVQAGGSLRLSCAASGIIFKLYAMGWYRQAPGKEREFVATITKTGGRTYYADSVKGRFTISRDNAKNTVYLQMNSLKPEDTAVYYCAARRVNGKMYYWGQGTQVTVSS,high polyreactivity
4,QVQHVESGGGLVQAGGSLRLSCAASGIIFYSYTMGWYRQAPGKDRELVAAISRNGGGTYYADSVKGRFTSSRDIAKNTGYLQMNSLKPEHTAVYYCAAGWRFGRYSGDYWGQGTQVTVSS,high polyreactivity
5,QVQHVESGGGLVQAGGSLRLSCAASGIILGSYAMGWYRQAPGKEMELVAAIRWSRGRTYYADSVKGRFTISRDNAKNTVYLQMNSLKPEDSAVYYCAAANSRRGYDYWGQGTQVTVSS,high polyreactivity
6,QVQHVESGGGLVQAGGSLRLSCAASGITFGRNTMGWYRQAPGKERELVAAIDSGGNTYADSVKGRFTISRDNAKITVYLQMIRQKPEDTAVDSCAVDGGEFSSYGYWGQGTQVTVSS,low polyreactivity
7,QVQHVESGGGLVQAGGSLRLSCAASGITFKPNAMGWSRHAPGKERELVAAIDSGGSTNYAYSVKGRFTISLDNAKNTVYLQMNSLKPEDTAVYYCAAPYQDRDLQVSYSTYEGGYWGQGTQVTVSS,low polyreactivity
8,QVQHVESGGGLVQAGGSLRLSCAASGITFVLNSMGWSRPAPGKERELVAAIDTSGADTYYADSVKGRFTISRDNAKNTVYLQMNSLKPEDTAVYYCAAETITDDSYEYDYWGQGTQVTVSS,low polyreactivity
9,QVQHVESGGGLVQAGGSLRLSCAASGITFVPNAMGWYRQAHGKERELVAAITSGDSTNYADSVKGRFTISRDNAKNTVYLQMNSLKPEDTAVYYCAADSWAQRPNQGRVSLHYYWGQGTLVTVSS,low polyreactivity
10,QVQHVESGGGLVQAGGSLRLSCAASGLIFPRYAMGLYRQAPGKERELVAAINWRGGITYYADSVKGRFTISRDNAKNTVYLQMNSLKPEDTAVYYCAAAVKHVAYHYNYWGQGTQVTVSS,high polyreactivity
11,QVQHVESGGGLVQAGGSLRLSCAASGLIFVRYAMGWYRQAPGKERELVATITWSGGTTYADSVKGRFTISRDNAKNTVYLQMNSLKPEDTAVYYCAVEWPAWTDSDYPVGGHAFGYWGQGTQVTVSS,low polyreactivity
12,QVQHVESGGGLVQAGGSLRLSCAASGLNLYSNAMGCYRQAPGNERELVAAISWIGASTYYADSVKGRFTISRDNAKNTVYLQMNSLKQEDTAVYYCATARYRGYPTYSYARDYCGQGTQVTVSS,high polyreactivity
13,QVQHVESGGGLVQAGGSLRLSCAASGNIFVAYAMGGYRQAPGKERELVAAITSGGRTYADSVKGRFTISRDNAKNTVYLQMNSLKPEDTAVYYCNADPYYVYLGYYDRYYSGYGYWGQGTQVTVSS,low polyreactivity
14,QVQHVESGGGLVQAGGSLRLSCAASGNSFRYYTMGWYRQAPGKEREFVAAISWSGGRTRYADSVKGRFTISRDNAMITVYLQMNSLKPEDTAVYYCAAYTPSYGGRDYWGQGTQVTVSS,low polyreactivity
15,QVQHVESGGGLVQAGGSLRLSCAASGPTYKRYAMGWYRQAPGKERELVAAIRQRGGSTYYADSVKGRFTISRDNAKNTVYLQMISLKPEDTAVYYWAKRYVSNSQYEYWGQGTQVTVSS,high polyreactivity
16,QVQHVESGGGLVQAGGSLRLSCAASGRIFGGNAMGWYRQAPGKERELVAAISIGGGSTNYADSVKGRFTISRDNAKNTFYLQMNSLKPEDTAVYYCAARTRYTSVGKLYSWGQGTQVTVSS,high polyreactivity
17,QVQHVESGGGLVQAGGSLRLSCAASGRIFHWYAMGWYRQAPGKERELVAAIRWTGGSTYYADSVKGRFTISRDNAKNTVYLEMNSLKPEDTAVYYCAAKGYTGIFYEMDYWGQGTQVTVSS,low polyreactivity
18,QVQHVESGGGLVQAGGSLRLSCAASGRIFRGYAMGWYRQAPGKERELVAVISYSGTRTYYADSVKGRFTISRDNAKNTVYLQMNSLKPEDTAVYYCNARANGFKDGYWGQGTQVTVSS,high polyreactivity
19,QVQHVESGGGLVQAGGSLRLSCAASGRIFVPYTMGWYRQAPGKERELVAAISRSGGSTYYADSVKGRFTISRDNAKNPVYLQMNSLKPEDTAVYYCAARATNVYSKMDYWGQGTQVTVSS,high polyreactivity
20,QVQHVESGGGLVQAGGSLRLSCAASGRIFYRNAMGWYRQAPGKERELVASITSAGRTYYADSVKGRFTISRDNAKNTVYLQMNSLKPEDTAVYYCAVRVAVLLNLYGYWGQGTQVTVSS,low polyreactivity
